Experiment [1] deals with hCD70 Biotin E131664-01 (human) (UniProt P32970). In words: BLI; antibody as probe on AHC (anti-Fc) biosensor, hCD70 Biotin titrated as analyte; '37 C' printed with the probe; 1:1 global fit. (In general: Biolayer interferometry detects binding as a change in optical thickness at a sensor tip.)
The target of experiment [2] is hFcRN mFc.67 N297A IHH avi biotin (human) (UniProt P55899). Nature of the experiment: BLI at pH 6.09 (row 'hFcRN pH 6.09'); biotinylated hFcRN-monomeric Fc fusion on streptavidin biosensor, antibody titrated as analyte; 1:1 global fit.
In experiment [3] the target is hFcγR 2b (human) (UniProt P31994). In words: BLI; biotinylated avi-tagged receptor-monomeric Fc fusion on streptavidin biosensor, antibody titrated as analyte; 1:1 global fit.
Sequence of hFcγR 2b (human) (P31994 43-217): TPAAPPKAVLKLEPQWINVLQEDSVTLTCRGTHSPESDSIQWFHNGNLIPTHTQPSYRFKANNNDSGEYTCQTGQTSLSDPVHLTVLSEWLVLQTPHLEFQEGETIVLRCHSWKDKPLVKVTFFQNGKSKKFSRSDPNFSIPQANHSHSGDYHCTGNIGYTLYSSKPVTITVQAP
Experiment [4] addresses hCD64 P2 mFc.67 N297A LALA-PG avi (human) (UniProt P12314). The experiment is described as above.
Experiment [5] has as its target hFcRN mFc.67 N297A IHH avi biotin (human) (UniProt P55899). In words: BLI at pH 7.46 (row 'hFcRN pH 7.46'); biotinylated hFcRN-monomeric Fc fusion on streptavidin biosensor, antibody titrated as analyte; 1:1 global fit.
For experiment [6], the target named is hFcgR 2a R131 mFc.67 N297A LALAPG avi biotin (human) (UniProt P12318). In words: BLI; biotinylated avi-tagged receptor-monomeric Fc fusion on streptavidin biosensor, antibody titrated as analyte; 1:1 global fit.
Experiment [7] concerns the target hFcgR 3a F158 mFc.67 N297A LALAPG avi biotin (human) (UniProt P08637). The description is as above.
Experiment [8] deals with hFcgR 2a H131 mFc.67 N297A LALAPG avi biotin (human) (UniProt P12318). The experiment is described as above.
Experiment [9] has as its target cynomolgus FcγRIIIa receptor overexpressed on CHO cells (cynomolgus) (UniProt Q8SPW2). In words: flow cytometry on CHO cells overexpressing cynomolgus FcγRIIIa (CHO/cynoCD16); detection with anti-human IgG-PE.
Experiment [10] addresses hFcgR 3a V158 mFc.67 N297A LALAPG avi biotin (human) (UniProt P08637). Nature of the experiment: BLI; biotinylated FcγR fusion on streptavidin biosensor, antibody titrated; 1:1 global fit.
Experiment [11] concerns the target high affinity human FcγRIIIa receptor (158V) overexpressed on CHO cells (human) (UniProt P08637). Nature of the experiment: flow cytometry on CHO cells overexpressing human FcγRIIIa 158V (CHO/hCD16); detection with anti-human IgG-PE. (In flow cytometry, cells or beads pass a laser one at a time.)
The target of experiment [12] is hCD70 Biotin E131664-01 (human) (UniProt P32970). In words: BLI; antibody as probe on AHC (anti-Fc) biosensor, hCD70 Biotin titrated as analyte; '37 C' printed with the probe; 1:1 global fit [Cont.].

Sequence of hCD70 Biotin E131664-01 (human) (P32970 39-193 limits assumed): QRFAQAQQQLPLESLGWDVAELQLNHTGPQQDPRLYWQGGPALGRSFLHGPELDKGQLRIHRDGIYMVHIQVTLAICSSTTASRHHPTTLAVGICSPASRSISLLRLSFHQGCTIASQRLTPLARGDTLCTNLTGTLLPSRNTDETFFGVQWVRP
Sequence of high affinity human FcγRIIIa receptor (158V) overexpressed on CHO cells (human) (P08637 17-254 F176V): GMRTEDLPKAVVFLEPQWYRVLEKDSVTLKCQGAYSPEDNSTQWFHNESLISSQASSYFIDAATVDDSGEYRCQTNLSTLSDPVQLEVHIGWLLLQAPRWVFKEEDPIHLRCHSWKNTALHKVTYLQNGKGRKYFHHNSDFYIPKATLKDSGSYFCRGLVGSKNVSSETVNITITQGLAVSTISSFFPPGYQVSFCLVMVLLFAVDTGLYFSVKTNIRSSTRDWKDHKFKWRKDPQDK
Sequence of cynomolgus FcγRIIIa receptor overexpressed on CHO cells (cynomolgus) (Q8SPW2 17-254): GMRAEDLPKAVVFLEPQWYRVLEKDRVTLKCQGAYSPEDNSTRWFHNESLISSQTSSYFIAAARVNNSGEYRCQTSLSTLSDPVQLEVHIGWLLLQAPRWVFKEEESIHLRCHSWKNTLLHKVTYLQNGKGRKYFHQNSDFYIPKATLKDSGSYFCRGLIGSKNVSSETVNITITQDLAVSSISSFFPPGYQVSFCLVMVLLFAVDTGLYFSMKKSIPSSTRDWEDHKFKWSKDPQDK

B1: SEA-CD70 (nonfucosylated h1F6) (antibody, INN chains, looked up, V domains shown, part only)
VH: QVQLVQSGAEVKKPGASVKVSCKASGYTFTNYGMNWVRQAPGQGLKWMGWINTYTGEPTYADAFKGRVTMTRDTSISTAYMELSRLRSDDTAVYYCARDYGDYGMDYWGQGTTVTVSS
VL: DIVMTQSPDSLAVSLGERATINCRASKSVSTSGYSFMHWYQQKPGQPPKLLIYLASNLESGVPDRFSGSGSGTDFTLTISSLQAEDVAVYYCQHSREVPWTFGQGTKVEIK
modifications: nonfucosylated afucosylated
The term Kd denotes a measure of binding affinity in units of concentration. Lower therefore signals tighter binding. As for B1, the Kd in experiment [1] is 0.24 nM; in [2] it was 19 nM; in [3] it was 27000 nM; in experiment [4], 0.42 nM; in experiment [5], 16700 nM.

B2: SGN-70 (fucosylated h1F6) (antibody, INN chains, looked up, V domains shown, part only)
VH: B1 VH
VL: B1 VL
In general, kon refers to the second-order rate constant of association. A high value points to faster complex formation. By EC50 (read off the curve) is commonly meant the concentration giving half of the maximal effect. Higher therefore signals lower potency in that assay. For the molecule B2, the Kd in [1] stood at 0.23 nM; in [2] it was 17 nM; in experiment [6], 4500 nM; in [7] it was 5300 nM; in [8], 2600 nM; in [3], 25000 nM. For the same molecule, the values for the Kd in [4], in experiment [5] and in experiment [10] were 0.66 nM, 15000 nM and 860 nM, respectively. The kon in [2] came to 720000 M⁻¹ s⁻¹; in [6] it was 77000 M⁻¹ s⁻¹; in [7] it was 27000 M⁻¹ s⁻¹; in [8], 100000 M⁻¹ s⁻¹; in experiment [3] it was 26000 M⁻¹ s⁻¹; in experiment [4], 770000 M⁻¹ s⁻¹. Moreover, the kon in experiment [5] was determined as 42000 M⁻¹ s⁻¹; in experiment [12], 270000 M⁻¹ s⁻¹. Further, the EC50 (read off the curve) in experiment [9] and in [11] was 1 µg/mL in each case.

These data come from patent publication US20240166757A1.
